The target in series [1] is T1, cMBD2 MBD (NMR) (UniProt Q5EFL0 2-70). In words: NMR (HSQC, Nz-exchange); SPR running buffer: 10 mM HEPES pH 7.4, 50 mM NaCl, 3 mM MgCl2, 0.1 mM EDTA, 1 mM DTT, 0.1% BSA, 0.005% polysorbate 20 (samples prepared at pH 6.5); temperature not given; NMR buffer not given (low salt, up to 100 mM NaCl in titration). Particulars: protein: recombinant; tags: tags removed by thrombin; blunt.

In series [2] the target is T1, cMBD2 MBD (NMR). The series can be described thus: NMR (TROSY HSQC); slow to intermediate exchange between sites; SPR running buffer: 10 mM HEPES pH 7.4, 50 mM NaCl, 3 mM MgCl2, 0.1 mM EDTA, 1 mM DTT, 0.1% BSA, 0.005% polysorbate 20 (samples prepared at pH 6.5); temperature not given; NMR buffer not given (low salt, up to 100 mM NaCl in titration). Particulars: protein: recombinant; tags: tags removed by thrombin; blunt.

For series [3], the target named is Trx-His6-MBD4 MBD (SPR) (Homo sapiens, UniProt O95243 80-148). In words: SPR; SPR running buffer: 10 mM HEPES pH 7.4, 50 mM NaCl, 3 mM MgCl2, 0.1 mM EDTA, 1 mM DTT, 0.1% BSA, 0.005% polysorbate 20 (samples prepared at pH 6.5); temperature not given; NMR buffer not given (low salt, up to 100 mM NaCl in titration). Particulars: protein: recombinant, tags: N-terminal thioredoxin and His6 fusion (modified pET32a), retained for SPR, label: 3' biotin on strand 1 (SPR only), blunt.

The target of series [4] is Trx-His6-MBD4 MBD Y109F (SPR) (Homo sapiens, UniProt O95243 80-148, Y109F). Described as above. Particulars: protein: recombinant, tags: N-terminal thioredoxin and His6 fusion, retained for SPR, label: 3' biotin on strand 1 (SPR only), blunt.
Series [5] has as its target T1, cMBD2 MBD (NMR). In words: NMR (TROSY HSQC); fast exchange between sites; SPR running buffer: 10 mM HEPES pH 7.4, 50 mM NaCl, 3 mM MgCl2, 0.1 mM EDTA, 1 mM DTT, 0.1% BSA, 0.005% polysorbate 20 (samples prepared at pH 6.5); temperature not given; NMR buffer not given (low salt, up to 100 mM NaCl in titration). Particulars: protein: recombinant; tags: tags removed by thrombin; blunt.

[6] abbreviates: one G:T mismatch (strand 1 G10, strand 2 T8).

T1 sequence (Q5EFL0 entry or part of it): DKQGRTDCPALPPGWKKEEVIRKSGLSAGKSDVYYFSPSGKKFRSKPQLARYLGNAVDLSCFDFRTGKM
Chain of Trx-His6-MBD4 MBD Y109F (SPR) (O95243 80-148 Y109F): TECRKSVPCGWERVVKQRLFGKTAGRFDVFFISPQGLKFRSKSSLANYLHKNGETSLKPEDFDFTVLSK
Chain of Trx-His6-MBD4 MBD (SPR) (O95243 80-148): as the sequence (O95243 80-148 Y109F) above, with F30Y counted along it

B1: mCpG (10 bp), wild-type (dsDNA)
DNA 1: GGATCGGCTC
DNA 2: GAGCCGATCC
modifications: 5-methyl-C at position 5 of both strands
Consider B1, for which the binding result in series [1] is listed as “binds”.

B2: Tandem (30 bp) (dsDNA)
DNA 1: CACGGATCGGCTCCCCCGAGTCGGTCCCGC
DNA 2: GCGGGACCGACTCGGGGGAGCCGATCCGTG
modifications: 5-methyl-C at strand 1 positions 8 and 22 and strand 2 positions 8 and 22
For B2, the binding result in series [2] is recorded as “binds”.

B3: mCpG/TpG mismatch (17 bp) (dsDNA)
DNA 1: GAGGCGCTCGGCGGCAG
DNA 2: CTGCCGCTGAGCGCCTC
modifications: 5-methyl-C at strand 1 position 9
As usually defined, the Kd is the equilibrium constant for the complex coming apart. B3: the values for the Kd in series [3] (setting [6]) and in series [4] (setting [6]) were 11.5 ± 1.2 µM and 14 ± 1.4 µM, respectively.

B4: CpG (17 bp) (dsDNA)
DNA 1: GAGGCGCTCGGCGGCAG
DNA 2: CTGCCGCCGAGCGCCTC
In the case of B4, the Kd in series [4] was found to be 19.6 ± 3.5 µM.

B5: Tandem (20 bp) (dsDNA)
DNA 1: GGATCGGCTCGGACCGACTC
DNA 2: GAGTCGGTCCGAGCCGATCC
modifications: 5-methyl-C at strand 1 positions 5 and 15 and strand 2 positions 5 and 15
For B5, in series [5], the binding result is “binds”.

B6: mCpG (17 bp) (dsDNA)
DNA 1: GAGGCGCTCGGCGGCAG
DNA 2: CTGCCGCCGAGCGCCTC
modifications: 5-methyl-C at strand 1 position 9 and strand 2 position 8
B6: the figures for the Kd in series [3] and in series [4] were 6.4 ± 1.5 µM and 7.9 ± 1.6 µM, respectively.

B7: Inverted (10 bp) (dsDNA)
DNA 1: GGACCGACTC
DNA 2: GAGTCGGTCC
modifications: 5-methyl-C at position 5 of both strands
As for B7, the binding result in series [1] was “binds”.

B8: hmCpG (17 bp) (dsDNA)
DNA 1: GAGGCGCTCGGCGGCAG
DNA 2: CTGCCGCCGAGCGCCTC
modifications: 5-hydroxymethyl-C at strand 1 position 9 and strand 2 position 8
Consider B8, for which the Kd in series [4] worked out at 16 ± 3 µM.

Values taken from publication PMC4176167, “Solution structure and intramolecular exchange of methyl-cytosine binding domain protein 4 (MBD4) on DNA suggests a mechanism to scan for mCpG/TpG mismatches”.
